What was measured:
F86A = target: T1, F86A; test: flow cytometry titration on CHO-K1 cells transiently expressing the HA-tagged TIGIT mutant, Alexa488 anti-human IgG detection, four-parameter fit of percent of control, nM is from the concentration axis and paragraph 252
T1 construct: also called HA-tagged human TIGIT with mutation F86A, on CHO-K1 cells
T1 single chain: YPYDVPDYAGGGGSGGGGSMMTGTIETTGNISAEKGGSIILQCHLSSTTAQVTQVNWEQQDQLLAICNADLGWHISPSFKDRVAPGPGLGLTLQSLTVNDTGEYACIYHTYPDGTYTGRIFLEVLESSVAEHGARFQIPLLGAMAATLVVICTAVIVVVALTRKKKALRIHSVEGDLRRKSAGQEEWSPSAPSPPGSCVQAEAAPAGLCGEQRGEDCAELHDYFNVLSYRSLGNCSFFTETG
Method: (§1) For flow cytometry analysis of the anti-hTIGIT antibody binding epitope, HA-tagged human TIGIT proteins with or without single amino acid mutation were transiently transfected into CHO-K1 cells. After 24 hr, transfected cells were suspended in HBSS buffer (Thermo Fisher Scientific, Cat#14175095), and incubated with HuTIG1-IgG1.AA antibody at varying concentrations in 50 μL volume. After 1 hr incubation at 4° C., cells were washed and a second incubation with 50 μL Alexa488 conjugated anti-human IgG(H+L) secondary antibody (Thermo Fisher Scientific, Cat#A-11013) was performed to detect cells bound by antibody. Cells were incubated with an anti-HA antibody (Sigma, Cat# H7411) as a positive control, and non-transfected CHO-K1 cells were used as a negative control. The cells were analyzed on an Attune NxT Cytometer (Thermo Fisher Scientific) and the data were processed using FlowJo software. For each mutant, the saturating antibody binding MFI (mean fluorescence intensity) were normalized to 100% POC (percent of control), and no primary antibody binding control MFI were normalized to 0% POC. Data were then fit to a four parameter non-linear sigmoidal curve using GraphPad Prism 7 curve fitting using following formula: Y=Bottom+(Top−Bottom)/(1+10^{((Log EC}^₅₀^{-X)*HillSlope)}).
(§2) All of these residues co-locate to one discrete region on the front ([…] structure of the TIGIT IgV extracellular domain (FIG. 28).

[1] = target: T2, HA-tagged human TIGIT with mutation N37A, on CHO-K1 cells (human, UniProt Q495A1 22-244); test: as above
T2 construct: Built as for m17
T2 sequence: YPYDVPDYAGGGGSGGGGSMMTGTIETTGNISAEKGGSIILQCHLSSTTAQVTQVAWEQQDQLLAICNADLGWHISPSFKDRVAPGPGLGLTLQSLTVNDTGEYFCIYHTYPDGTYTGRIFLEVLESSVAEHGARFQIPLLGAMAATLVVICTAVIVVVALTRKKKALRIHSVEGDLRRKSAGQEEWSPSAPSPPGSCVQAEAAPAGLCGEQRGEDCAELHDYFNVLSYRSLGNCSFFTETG
Method: as §1, §2

T96A = target: T3, T96A; test: as above
T3 construct: also called HA-tagged human TIGIT with mutation T96A, on CHO-K1 cells
T3 single chain: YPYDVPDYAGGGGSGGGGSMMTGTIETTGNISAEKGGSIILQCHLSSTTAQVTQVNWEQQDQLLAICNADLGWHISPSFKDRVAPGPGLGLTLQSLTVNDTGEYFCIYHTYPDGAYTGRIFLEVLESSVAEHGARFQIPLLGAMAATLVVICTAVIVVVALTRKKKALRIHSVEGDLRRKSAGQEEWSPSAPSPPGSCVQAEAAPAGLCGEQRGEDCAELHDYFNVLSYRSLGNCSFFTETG
Method: as §1, §2

L52A = target: T4, L52A; test: as above
T4 construct: also called HA-tagged human TIGIT with mutation L52A, on CHO-K1 cells
T4 single chain: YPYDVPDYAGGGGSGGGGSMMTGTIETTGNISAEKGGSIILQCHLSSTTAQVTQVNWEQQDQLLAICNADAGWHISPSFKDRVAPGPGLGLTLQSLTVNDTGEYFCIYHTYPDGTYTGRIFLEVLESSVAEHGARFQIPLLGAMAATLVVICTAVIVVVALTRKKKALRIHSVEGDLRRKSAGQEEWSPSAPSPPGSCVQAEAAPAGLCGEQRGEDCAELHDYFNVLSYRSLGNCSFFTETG
Method: as §1, §2

[2] = target: T5, human TIGIT on cells (Jurkat-TIGIT cells; human T cells, NK cells and other blood cells) (human, UniProt Q495A1 22-244); test: cell-based or functional assay
T5 sequence: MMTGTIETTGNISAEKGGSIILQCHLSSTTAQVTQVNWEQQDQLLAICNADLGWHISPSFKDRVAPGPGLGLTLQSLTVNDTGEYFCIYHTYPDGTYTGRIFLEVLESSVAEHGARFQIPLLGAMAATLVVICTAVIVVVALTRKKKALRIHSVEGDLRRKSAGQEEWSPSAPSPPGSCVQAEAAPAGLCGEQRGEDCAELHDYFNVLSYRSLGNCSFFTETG

B1: HuTIG1-IgG1.AA (humanized IgG1/kappa form of TIG1, L234A/L235A) (antibody)
heavy: not shown
light: DIQMTQSPSSLSASVGDRVTITCRASKSISKYLAWYQQKPGKAPKLLIYSGSTLQSGVPSRFSGSGSGTDFTLTISSLQPEDFATYYCQQHNEYPWTFGGGTKVEIKRTVAAPSVFIFPPSDEQLKSGTASVVCLLNNFYPREAKVQWKVDNALQSGNSQESVTEQDSKDSTYSLSSTLTLSKADYEKHKVYACEVTHQGLSSPVTKSFNRGEC
notes: Mature full chains; also called humanized TIG1
For B1, the EC50 (F86A) was 0.844 nM, the EC50 [1] was 126 nM and the EC50 (T96A) was 1.36 nM. The EC50 (L52A) was 2.67 nM and the “increase of K562 target cell killing by purified NK cells, 10 µg/ml antibody, relative to 'No Antibody' or Rituxan” value [2] was 28%.
